{"source": "paper PMC3302164", "molecular_target": "HA-PP1β, expressed in HEK 293 cells (human) (UniProt P62140)", "sequence (P62140 whole entry)": "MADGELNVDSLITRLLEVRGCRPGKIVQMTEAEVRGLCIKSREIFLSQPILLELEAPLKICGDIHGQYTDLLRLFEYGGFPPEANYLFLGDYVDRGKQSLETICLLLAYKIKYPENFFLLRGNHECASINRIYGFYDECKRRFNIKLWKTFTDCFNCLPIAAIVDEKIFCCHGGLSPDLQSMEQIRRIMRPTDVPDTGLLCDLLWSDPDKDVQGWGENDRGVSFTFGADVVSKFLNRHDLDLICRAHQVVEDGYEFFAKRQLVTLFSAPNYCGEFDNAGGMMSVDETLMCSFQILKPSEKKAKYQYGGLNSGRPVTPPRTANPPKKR", "experiment": "co-IP", "data": [{"substance": "FLAG-KAP1 (wild type), expressed in HEK 293 cells (from UniProt Q13263 1-835) (natural protein)", "values": [{"measurement": "extent of interaction relative to that with PP1α, after doxorubicin", "result": 30, "unit": "%"}]}]}
